Data reported in PMC3472031.
“And” between values parts separate entries of the source, which are not always exact repeats. Equal entries are not always repeated.

B1: N-WASP GBD GBD, O00401 (protein)
chain: KRLTKADIGTPSNFQHIGHVGWDPNTGFDLNNLDPELKNLFDMCGISEAQLKDRETSKVIYDFIEKTGGVEAVKNELRR
B2: IRTKS SH3 SH3, Q9UHR4 (protein)
chain: LNMMKKQKVKTIFPHTAGSNKTLLSFAQGDVITLLIPEEKDGWLYGEHDVSKARGWFPSSYTKLLEENET

What was measured:
[1] = target: EspFU R475 R475 (fifth 47-residue repeat) (Escherichia coli O157:H7), P0DJ88; assay: ITC
[2] = target: EspFU R2 20-residue peptide from second repeat (Escherichia coli O157:H7), P0DJ88; assay: ITC

| Binder | Kd [1] | Kd [2] |
| --- | --- | --- |
| B1 | 40 nM and 70 nM | – |
| B2 | – | 1100 nM |
